Laboratory results as given in the RNAGym collection of RNA variant scans (doi:10.1073/pnas.2313332121).
This sample holds only a part of the variants without activity.

B1: TPR 5TU (parent)
chain: GGAUCUUCUCGAUCUAACAAAAAAGACAAAUCUGCCACAAAGCUUGAGAGCAUCUUCGGAUGCAGAGGCGGCAGCCUUCGGUGGCGCGAUAGCGCCAACGUUCUCAACUAUGACACGCAAAACGCGUGCUCCGUUGAAUGGAGUUUAUCAUG

Variants of: B1
Experiment: polymerase ribozyme fitness, log enrichment relative to wild type (log ratio); higher = more active; in vitro selection for triplet polymerase activity
Method in brief: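 Genotype fitness is the logarithm of its enrichment divided by wild-type enrichment, using inverse-variance-weighted averages of replicates. That logarithm is base 2. Enrichment was measured by Illumina sequencing of input and output libraries from one triplicate in vitro selection round, with frozen incubation at −7 °C, on PCR-built, transcribed mutant libraries of each subunit of a heterodimeric triplet polymerase ribozyme, retaining genotypes with ≥10 input reads and ≥1 read per output.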

Variant	polymerase ribozyme fitness (log ratio)
C35U G94U	-0.729
C36U C114U	-3.21
C36A C93G C125A	≤ -4.2
C38A A89G C95G G124A	-2.76
C35U U61A G86A C125G G141U	≤ -4.2
C38A U61A C96G	-2.38
G34U U55A A91G G94U	≤ -4.2
A37C U55A C72U G88C A98G C103G U127C U134A	≤ -4.2
C35A C76U	-3.95
C35A C76A	-4.08
C35A U53A G62A	≤ -4.2
A37C U56A	-0.806
C36U U56A C76U G86A A115C	-3.51
C35U A39C U56C C63U A110C A115G A121G G126A	≤ -4.2
C35U G58U G74A G80U G83A C116G	≤ -4.2
A37C G70C C87A C125U	≤ -4.2
A37U A49U U55A U56A U127A	≤ -4.2
C36U C85U G124C	-2.46
A37C C108G	≤ -4.2
C38G	-0.296
C38A	-0.151
C38A G83A	-0.746
C35G G50C U56A A64U G133C U148G	≤ -4.2
C38A U90A G92A C103G G117U A138G	≤ -4.2

Variant	polymerase ribozyme fitness (log ratio)
A37C A41U G48U A73U C93G C99U G140A	≤ -4.2
A37C C43U G68U A73C C79G C95U U148G	≤ -4.2
C36G C57G C72G C118U	≤ -4.2
C38A C95G C99U A138G	≤ -4.2
C35U C87U A107G G126A G136U G140U	≤ -4.2
C35U A60G C79U G86C C93G G94A U104C	≤ -4.2
C35U C116U A120G	-0.528
C36A G84U U102A C103U U127C	≤ -4.2
A37C G86U C87U C108U A113G G117A	≤ -4.2
C35U U56A G143C	-2.48
A37C A49C G81A G92C A106G C108A A115U A137U G143U	≤ -4.2
C38A C93A G136A	-1.47
C36A U77G G81C G92U A115U G136C	≤ -4.2
C35U C93G	-3.19
A37U C79U C116A	-4.15
C36G C87U A106U	≤ -4.2
C35U U78A G128A	≤ -4.2
C35U U82C	0.243
G34U G94C	-3.96
C36U C51G A107U G128A U139G	≤ -4.2
C36U A47G G68C G133C	≤ -4.2
C36U U56G A60C U61G C79U C93U C99U G112C U144A A150C	≤ -4.2
A37C U127G	-3.83
A37G U145G	-2.35

Variant	polymerase ribozyme fitness (log ratio)
C36U G58A A119G G140A	-4.18
C35U G117C C118U	-1.01
C35U G80A A91G G136A	-3.57
A37C A52G U82C C85G C95U C105U A142C A150G	≤ -4.2
C35U A40C U45G G50A G88U A91G G140C	≤ -4.2
C35U A98G C99A U101C G141A	≤ -4.2
C35A U45A U101A	-4.13
A37C A52C U53A G92A	≤ -4.2
A37C C96U	-1.09
C38A G50C C96A	-4.12
C35U A91G G117U A142U	≤ -4.2
C36A G84A	-3.37
C35A G59U C69G	-2.14
C38G A49C C76G C93U C125A U135A G143C U144A	≤ -4.2
C36G U130C	-3.89
C35U A60G G136U	-3.08
C35U A41C U56A C76U G88U C105U	≤ -4.2
C35U U44G C85U C116G C123A	-3.89
C35U A52G	-0.53
A37C C54G G92U A97U A119U	≤ -4.2
A37U C114U A115G A120U	-3.83
C35U C43A A60C U101G	≤ -4.2
C38A A91G	-3.39
G34U G42A U82C U135C	≤ -4.2

Variant	polymerase ribozyme fitness (log ratio)
C35U G84U A89U A97G G143A	-2.66
A37U U61A C85U U134A	-3.78
A37C C72G C79A	≤ -4.2
A37U C51U A97C	-2.02
C36A C76U	≤ -4.2
A37C U56A C85A C99G A107G G124A	≤ -4.2
C36U C54A G68A G71A C95G A115U A122G	≤ -4.2
C35U U146C	0.279
A37U A113U C116U G136C	≤ -4.2
A37C C63G C99A U111C C114U A119U	≤ -4.2
A37G G81C A142C	-3.82
C35A G86A	≤ -4.2
C35U U56A C95A C105U G126C	-1.08
A37C C87U	-0.492
A37C A41C C72A C93U C125U	≤ -4.2
C35U U56G U134A	-2.9
C35U U55A U56A G92A A110U U135A G152C	≤ -4.2
C35U C54G C85A	-3.81
A37C U55A	0.0873
C35U A142G	-1.79
C35G A49U G124C	≤ -4.2
C38G A98U A122C G141C	-2.06
C36A C54G U61G C79A G80A U102C	≤ -4.2
A37G C54U G59C C69U	-1.86

Variant	polymerase ribozyme fitness (log ratio)
A37U A40C G68C G86U C95U G136A A137C	≤ -4.2
A37C A52U C132U	-4.13
C35A C54G G83A C125A	≤ -4.2
C35U C95A	-0.608
C35G A37C A52G G86U A97G	-4.2
C36U U55G C118G	-1.72
C36U C87U	-1.6
A37G A41G C79A G92U C95U C123U	≤ -4.2
A37C G92U	-0.276
A37G A40U A115G A142U	≤ -4.2
C35U G50U G83U C87A A115C C118G	≤ -4.2
C38A G70A C85G U127C	≤ -4.2
A37G A52G C69A U144G	-4.11
C36U A40G C108G G140A	≤ -4.2
C35U C57A U61A G67A C95A C103A C116U	≤ -4.2
C35U C57U	0.194
C35U C57A	0.0108
C35A G86U C87G A97U C105U A119U A150C	≤ -4.2
C35G C76U G92A C123G A137U	≤ -4.2
C35A G70A C79U G81A	≤ -4.2
C35G C95G A97C C114G G124A A138G	≤ -4.2
C35G G94C U101C A115C	≤ -4.2
C35A A60C U102G	≤ -4.2
A37C G86U A120U U146G	-3.9

Variant	polymerase ribozyme fitness (log ratio)
C36A A39G G59U C85A A98U A107C	≤ -4.2
C35G G71A C96G U139G	-3.91
A37U A52U C57U G74A C76U C93U C95U U109G	≤ -4.2
C35A A107U C108U	-3.61
A37U G70C C85U G92A	≤ -4.2
C38A C85A	-2.61
C36U C51G C76G G81C A107G G143A	≤ -4.2
C35G U55A G58A G86U A147U	-4.06
C38A U56A G128U	-3.69
C35U U135G	-3.62
C35U U135A	-0.972
C38A U44A A47U G86U C87G G100A A107G C118U	≤ -4.2
C35G C87U	-4.18
C38A C51U C95A C131A	-3.34
A37C G86C	-3.09
A37G G50U A97C A137G	-3.75
C36U A37U A73G A91U C149U G152U	≤ -4.2
C38A C87U A107U	-4.17
C35A G62C U109G A122U A142C	≤ -4.2
C36U C87A G117U	≤ -4.2
C38A G50U	-0.722
C35U G74C C99U	-4.12
C36A A97U U101C U139A	≤ -4.2
A37G C69G	-0.726

Variant	polymerase ribozyme fitness (log ratio)
A37C C69G G70A C116A	-3.56
A37G C51U	-2.54
C36A C93A C105G C125A	≤ -4.2
C36U G81A C95G C96A C99U C149G	≤ -4.2
G34U A60C G62A G70A G83C C95G U104C	≤ -4.2
A37C A52G	-0.00493
C35A A49G C87A C103A	≤ -4.2
C35U C72U U82G C96U A106G G112A	≤ -4.2
A37G A47G U101C	-2.53
C35G U55A C85U	≤ -4.2
C35U A47U U148A A150U	≤ -4.2
C38A A49C G67A C79G	≤ -4.2
C36U A52U	-1.56
C36G C51U C54U C93G	≤ -4.2
A37C U45A C79U A97U U144A	≤ -4.2
C36U A60G C87A G88C G141C	≤ -4.2
C35G U82A G94U G126A A138U	≤ -4.2
C35U G42C C76A C93A G117C	≤ -4.2
C38A C76G G92C	≤ -4.2
C36U A37G U53A C54U C87G	≤ -4.2
C35A G50C G86U C118A	≤ -4.2
C36A A150U	-4.01
C36G G80U C85U C87A U109G U139C A142G	≤ -4.2
